Laboratory results taken from doi:10.1101/2021.02.05.429362.

Experiments:
GFP-Caprin-1(356-386) = GFP-Caprin-1(356-386) (UniProt Q14444); assay: ITC; conditions: 25°C, 150 mM NaCl, 10 mM MgCl2
GFP-USP10(1-28) = GFP-USP10(1-28) (UniProt Q14694); assay: ITC; conditions: 25°C, 150 mM NaCl, 10 mM MgCl2

KD (GFP-Caprin-1(356-386); pH 5.6): 1.4 μM (1.1 / 1.7)
KD (GFP-Caprin-1(356-386); pH 7.4): 4 ± 2 µM
KD (GFP-USP10(1-28); pH 5.6): 0.5 μM (0.3 / 0.7)
KD (GFP-USP10(1-28); pH 7.4): 1.5 ± 0.5 µM
Substance: G3BP1 NTF2-like domain (G3BP1-NTF2)
